In US20230303994:
Changes are numbered by the printed parent chain.

B1: trypsin variant SEQ ID NO: 32 (protein)
chain: IVGGYTCAANSIPYQVSLNSGSHRCGGSLINSQWVVSAAHCYKSRIQVRLGEHNIDVLEGNEQFINAAKIITHPNFNGNTLDNDIMLIKLSSPATLNSRVATVSLPRSCAAAGTECLISGWGNTKSSGSSYPSLLQCLKAPVLSDSSCKSSYPGQITGNMICVGFLEGGKDACQGDSGGPVVCNGQLQGIVSSGYGCAQKNKPGVYTKVCNYVNWIQQTIAAN
B2: trypsin variant SEQ ID NO: 46 (protein)
chain: B1 chain with R24A
B3: trypsin variant SEQ ID NO: 44 (protein)
chain: B1 chain with A172S
B4: trypsin variant SEQ ID NO: 40 (protein)
chain: B1 chain with Y131E
B5: trypsin variant SEQ ID NO: 35 (protein)
chain: B1 chain with Y131L
B6: trypsin variant SEQ ID NO: 37 (protein)
chain: B1 chain with Y131T
B7: trypsin variant SEQ ID NO: 39 (protein)
chain: B1 chain with Y131N
B8: trypsin variant SEQ ID NO: 6 (protein)
chain: B1 chain with R99F
B9: trypsin variant SEQ ID NO: 42 (protein)
chain: B1 chain
B10: trypsin variant SEQ ID NO: 34 (protein)
chain: B1 chain with Y131A
B11: trypsin variant SEQ ID NO: 45 (protein)
chain: B1 chain with A172C
B12: trypsin variant SEQ ID NO: 48 (protein)
chain: B1 chain with R24M
B13: trypsin variant SEQ ID NO: 33 (protein)
chain: B1 chain with R107T
B14: trypsin variant SEQ ID NO: 49 (protein)
chain: B1 chain with R24T
B15: trypsin variant SEQ ID NO: 43 (protein)
chain: B1 chain with A172T
B16: trypsin variant SEQ ID NO: 47 (protein)
chain: B1 chain with R24I
B17: trypsin variant SEQ ID NO: 50 (protein)
chain: B1 chain with R24N
B18: trypsin variant SEQ ID NO: 38 (protein)
chain: B1 chain with Y131C
B19: trypsin variant SEQ ID NO: 5 (protein)
chain: B1 chain with R99L

Biological target: pre-pro-human insulin

| Protein | Activity PPI cleavage | Selectivity |
| --- | --- | --- |
| B1 | yes | >90% |
| B2 | yes | >70% |
| B3 | yes | >80% |
| B4 | yes | >80% |
| B5 | yes | >90% |
| B6 | yes | >90% |
| B7 | yes | >90% |
| B8 | yes | >90% |
| B9 | yes | >90% |
| B10 | yes | >90% |
| B11 | yes | >65% |
| B12 | yes | >80% |
| B13 | yes | >90% |
| B14 | yes | >80% |
| B15 | yes | >80% |
| B16 | yes | >90% |
| B17 | yes | >65% |
| B18 | yes | >80% |
| B19 | yes | >90% |
